Laboratory results as given in patent EP2390325A1, “FLAVONOID-3-GLUCURONYLTRANSFERASE AND POLYNUCLEOTIDE ENCODING SAME” (Suntory Holdings Limited, priority 2009, dated 2010).

Legend:
VvGT5 [1] = target: T1, VvGT5 (Vitis vinifera, UniProt C7G3B5); assay: Glycosyl acceptor specificity of VvGT5, product amount by HPLC; assay type: biochemical; details: 100 µM glycosyl acceptor, 1 mM UDP-glucuronic acid, pH 9.5, 30°C, 15 minutes
T1 sequence (C7G3B5 1-459): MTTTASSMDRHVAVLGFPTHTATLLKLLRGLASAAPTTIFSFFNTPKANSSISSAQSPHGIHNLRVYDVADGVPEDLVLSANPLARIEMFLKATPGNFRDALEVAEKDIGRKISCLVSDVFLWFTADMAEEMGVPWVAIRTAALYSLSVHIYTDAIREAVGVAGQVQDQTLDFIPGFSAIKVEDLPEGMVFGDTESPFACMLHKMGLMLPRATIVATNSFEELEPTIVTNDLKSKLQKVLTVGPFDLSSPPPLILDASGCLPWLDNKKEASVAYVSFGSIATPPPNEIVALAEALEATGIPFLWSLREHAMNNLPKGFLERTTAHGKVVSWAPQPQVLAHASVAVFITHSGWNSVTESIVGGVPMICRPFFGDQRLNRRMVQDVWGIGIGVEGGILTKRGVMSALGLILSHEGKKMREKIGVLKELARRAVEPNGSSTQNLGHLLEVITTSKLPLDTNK
Procedure: Next, the glycosyl acceptor specificity of this enzyme was examined. […] The reaction was started by adding the glycosyl acceptor. The reaction was stopped by adding an equal volume of 40% acetonitrile solution containing 0.1% TFA. After the reaction was stopped, the solution was centrifuged (15000 rpm, 2 mins., 4°C) and 100 µl of the resulting supernatant was provided for the HPLC analysis. The amounts of the products produced were compared for each glycosyl acceptor.
Anthocyanins were analyzed under the conditions below using the HPLC system described above. Conditions for the HPLC analysis of anthocyanins were as follows. Asahipak ODP-50 4E (4.6 x 250 mm, Showa Denko K.K.) as a column was used at room temperature. Moving phase A (0.5% TFA/H2O) and moving phase B (0.5% TFA/50% GH3CN) were used. Conditions for elution were as follows: Equilibration was performed with B30% for 3 minutes, followed by linear density gradients (B30%→B65%) for 15 minutes and (B65%→B100%) for further 1 minute, which was maintained for 5 minutes at B100%. Thereafter, the condition was again reverted to B30% to equilibrate for 10 minutes. The flow rate was 0.7 ml/min. Detection was performed at 520 nm. Under the conditions, standard pelargonidin, cyanidin and delphinidin were sequentially eluted in this order at retention times of approximately […], respectively.

VvGT5 [2] = target: T1, VvGT5; assay: Glycosyl donor specificity of VvGT5, product amount by HPLC; assay type: biochemical; details: 100 µM quercetin, 1 mM glycosyl donor, pH 9.5, 30°C, 15 minutes
Procedure: Next, the glycosyl donor specificity of this enzyme was examined. […] The reaction was started by adding the glycosyl acceptor. The reaction was stopped by adding an equal volume of 40% acetonitrile solution containing 0.1% TFA. After the reaction was stopped, the solution was centrifuged (15000 rpm, 2 mins., 4°C) and 100 µl of the resulting supernatant was provided for the HPLC analysis. The amounts of the products produced in the respective glycosyl donors were compared.

[3] = substrate: O=C(O)[C@H]1O[C@H](OP(=O)(O)OP(=O)(O)OC[C@H]2O[C@@H](n3ccc(=O)[nH]c3=O)[C@H](O)[C@@H]2O)[C@H](O)[C@@H](O)[C@@H]1O; assay: purified protein, by the assay type; details: other: glycosyl donor; purified His-tagged VvGT5; pH 9.5; 30.0 °C
[4] = substrate: COc1cc(-c2oc3cc(O)cc(O)c3c(=O)c2O)ccc1O; assay: Kinetic analysis of VvGT5 (Km, kcat); assay type: biochemical, Vitis vinifera; details: other: glycosyl acceptor substrate; purified His-tagged VvGT5; pH 9.5; 30.0 °C
[5] = substrate: O=c1c(O)c(-c2ccc(O)c(O)c2)oc2cc(O)cc(O)c12; assay: Kinetic analysis of VvGT5 (Km, kcat); assay type: biochemical, Vitis vinifera; details: other: glycosyl acceptor substrate; purified His-tagged VvGT5; pH 9.5; 30.0 °C
[6] = substrate: O=c1c(O)c(-c2ccc(O)cc2)oc2cc(O)cc(O)c12; assay: Kinetic analysis of VvGT5 (Km, kcat); assay type: biochemical, Vitis vinifera; details: other: glycosyl acceptor substrate; purified His-tagged VvGT5; pH 9.5; 30.0 °C

With `O=c1c(O)c(-c2ccc(O)c(O)c2)oc2cc(O)cc(O)c12` [quercetin] the “activity of VvGT5 on glycosyl acceptor” value (VvGT5 [1]) was “highest activity”.

With `O=C(O)[C@H]1O[C@H](OP(=O)(O)OP(=O)(O)OC[C@H]2O[C@@H](n3ccc(=O)[nH]c3=O)[C@H](O)[C@@H]2O)[C@H](O)[C@@H](O)[C@@H]1O` [UDP-glucuronic acid] the “product formation with glycosyl donor” value (VvGT5 [2]) was “the product was obtained only when UDP-glucuronic acid was used as the substrate”.

B1: VvGT5 (Vitis vinifera) (protein)
chain: MTTTASSMDRHVAVLGFPTHTATLLKLLRGLASAAPTTIFSFFNTPKANSSISSAQSPHGIHNLRVYDVADGVPEDLVLSANPLARIEMFLKATPGNFRDALEVAEKDIGRKISCLVSDVFLWFTADMAEEMGVPWVAIRTAALYSLSVHIYTDAIREAVGVAGQVQDQTLDFIPGFSAIKVEDLPEGMVFGDTESPFACMLHKMGLMLPRATIVATNSFEELEPTIVTNDLKSKLQKVLTVGPFDLSSPPPLILDASGCLPWLDNKKEASVAYVSFGSIATPPPNEIVALAEALEATGIPFLWSLREHAMNNLPKGFLERTTAHGKVVSWAPQPQVLAHASVAVFITHSGWNSVTESIVGGVPMICRPFFGDQRLNRRMVQDVWGIGIGVEGGILTKRGVMSALGLILSHEGKKMREKIGVLKELARRAVEPNGSSTQNLGHLLEVITTSKLPLDTNK
B1 gave a Km [3] of 17.7 µM, a Km [4] of 7.92 ± 0.32 µM and a kcat [4] of 0.413 ± 0.03 s⁻¹. For the same molecule, the Km [5] was 5.60 ± 1.76 µM, the kcat [5] was 7.16 ± 0.37 s⁻¹ and the Km [6] was 10.8 ± 0.4 µM. For the same molecule, the kcat [6] was 6.05 ± 0.05 s⁻¹.
